The target of test [1] is T1, Cdc15-eGFP (S. cerevisiae, UniProt P27636 1-974).
T1 sequence (looked up): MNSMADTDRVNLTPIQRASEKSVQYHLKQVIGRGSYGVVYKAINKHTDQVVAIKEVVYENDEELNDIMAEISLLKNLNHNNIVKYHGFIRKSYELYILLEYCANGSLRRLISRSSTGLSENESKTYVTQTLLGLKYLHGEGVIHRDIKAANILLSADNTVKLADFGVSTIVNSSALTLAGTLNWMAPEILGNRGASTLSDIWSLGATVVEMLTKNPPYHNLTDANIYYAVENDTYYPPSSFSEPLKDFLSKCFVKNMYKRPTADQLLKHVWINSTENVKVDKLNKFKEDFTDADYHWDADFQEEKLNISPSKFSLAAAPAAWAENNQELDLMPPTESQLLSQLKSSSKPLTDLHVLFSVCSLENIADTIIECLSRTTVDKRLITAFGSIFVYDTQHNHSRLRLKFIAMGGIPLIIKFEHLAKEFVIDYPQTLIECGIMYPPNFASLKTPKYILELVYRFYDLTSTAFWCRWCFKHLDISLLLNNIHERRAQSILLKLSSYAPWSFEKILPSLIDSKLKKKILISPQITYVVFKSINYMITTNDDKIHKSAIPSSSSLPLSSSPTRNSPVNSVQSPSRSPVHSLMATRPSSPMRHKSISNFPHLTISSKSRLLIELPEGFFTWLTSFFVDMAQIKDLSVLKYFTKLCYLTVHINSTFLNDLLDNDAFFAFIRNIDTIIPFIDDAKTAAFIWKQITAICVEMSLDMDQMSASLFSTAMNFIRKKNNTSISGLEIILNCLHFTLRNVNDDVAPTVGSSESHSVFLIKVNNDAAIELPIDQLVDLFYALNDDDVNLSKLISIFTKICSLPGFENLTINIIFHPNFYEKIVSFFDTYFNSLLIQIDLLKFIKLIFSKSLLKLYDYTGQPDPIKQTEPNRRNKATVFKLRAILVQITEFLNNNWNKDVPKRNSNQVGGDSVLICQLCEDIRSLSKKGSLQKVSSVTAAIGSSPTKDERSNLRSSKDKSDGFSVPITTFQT
Description: AlphaScreen or HTRF.

For test [2], the target named is T1, Cdc15-eGFP. Description: AlphaScreen or HTRF. This is another data set of the same source. Background: Bead proximity is the source of the signal in Alpha formats.

Where two headings read alike, the source gives them in different places.

B1: Recombinant Tem1 (unlabeled) (natural protein, S. cerevisiae, UniProt P38987 1-245, looked up)
chain: MATPSTGANNSIPAVRNQVEVQVGLVGDAQVGKTSLMVKYVQNIYDKEYTQTLGVNFLKRKVSIRSTDIIFSIMDLGGQREFINMLPIATVGSSVIIFLFDLTRPETLSSIKEWYRQAYGLNDSAIPILVGTKYDLLIDLDPEYQEQISRTSMKYAQVMNAPLIFCSTAKSINIQKIFKIALAKIFNLTLTIPEINEIGDPLLIYKHLGGQQHRHHNKSQDRKSHNIRKPSSSPSSKAPSPGVNT
As a reminder, the Kd is a measure of binding affinity in units of concentration. High values mean a looser complex, low ones a tighter complex. Turning to B1, the dissociation constant Kd came out at 16 ± 3 nM in test [1] and 3.9 ± 0.8 nM in test [2].
